Laboratory results as given in the supplement of paper PMC5998384.

Experiments:
HeLa Kyoto [1] = test: solubility change mitosis vs G1/S (difference of NP-40 vs SDS log2 ratios) (log2 ratio difference); higher = more soluble in mitosis
HeLa Kyoto [2] = test: solubility in G1/S (NP-40 vs SDS abundance) (log2 ratio); higher = more soluble; conditions: cell cycle stage: G1/S
HeLa Kyoto [3] = test: thermal stability score vs G1/S (z-score of summed log2 fold changes over temperatures); higher = more thermally stable than in G1/S
HeLa Kyoto [4] = test: melting temperature (median over replicates), in situ; higher = more thermally stable
[5] = cell cycle stage: early G1 (4.5 h after nocodazole release)
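Throughout, for melting temperature (median over replicates), in situ: HeLa Kyoto cells synchronized by double thymidine or nocodazole block, proteins quantified by TMT10plex mass spectrometry, three independent biological replicates.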
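Throughout, for solubility change mitosis vs G1/S (difference of NP-40 vs SDS log2 ratios): synchronized HeLa Kyoto cells (double thymidine block for G1/S, nocodazole release for mitosis), protein amounts in NP-40 versus SDS lysates quantified by mass spectrometry, three biological replicates.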
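Throughout, for solubility in G1/S (NP-40 vs SDS abundance): HeLa Kyoto cells arrested at G1/S by double thymidine block, proteins quantified by TMT10plex mass spectrometry in mild NP-40 versus SDS extracts, three biological replicates.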
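Throughout, for thermal stability score vs G1/S (z-score of summed log2 fold changes over temperatures): synchronized HeLa Kyoto cells, proteins quantified by TMT10plex mass spectrometry, three biological replicates, mitosis taken 0.5 h after nocodazole release, G1/S directly after double thymidine block.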

Sequence of MTR (chain, as listed by the source): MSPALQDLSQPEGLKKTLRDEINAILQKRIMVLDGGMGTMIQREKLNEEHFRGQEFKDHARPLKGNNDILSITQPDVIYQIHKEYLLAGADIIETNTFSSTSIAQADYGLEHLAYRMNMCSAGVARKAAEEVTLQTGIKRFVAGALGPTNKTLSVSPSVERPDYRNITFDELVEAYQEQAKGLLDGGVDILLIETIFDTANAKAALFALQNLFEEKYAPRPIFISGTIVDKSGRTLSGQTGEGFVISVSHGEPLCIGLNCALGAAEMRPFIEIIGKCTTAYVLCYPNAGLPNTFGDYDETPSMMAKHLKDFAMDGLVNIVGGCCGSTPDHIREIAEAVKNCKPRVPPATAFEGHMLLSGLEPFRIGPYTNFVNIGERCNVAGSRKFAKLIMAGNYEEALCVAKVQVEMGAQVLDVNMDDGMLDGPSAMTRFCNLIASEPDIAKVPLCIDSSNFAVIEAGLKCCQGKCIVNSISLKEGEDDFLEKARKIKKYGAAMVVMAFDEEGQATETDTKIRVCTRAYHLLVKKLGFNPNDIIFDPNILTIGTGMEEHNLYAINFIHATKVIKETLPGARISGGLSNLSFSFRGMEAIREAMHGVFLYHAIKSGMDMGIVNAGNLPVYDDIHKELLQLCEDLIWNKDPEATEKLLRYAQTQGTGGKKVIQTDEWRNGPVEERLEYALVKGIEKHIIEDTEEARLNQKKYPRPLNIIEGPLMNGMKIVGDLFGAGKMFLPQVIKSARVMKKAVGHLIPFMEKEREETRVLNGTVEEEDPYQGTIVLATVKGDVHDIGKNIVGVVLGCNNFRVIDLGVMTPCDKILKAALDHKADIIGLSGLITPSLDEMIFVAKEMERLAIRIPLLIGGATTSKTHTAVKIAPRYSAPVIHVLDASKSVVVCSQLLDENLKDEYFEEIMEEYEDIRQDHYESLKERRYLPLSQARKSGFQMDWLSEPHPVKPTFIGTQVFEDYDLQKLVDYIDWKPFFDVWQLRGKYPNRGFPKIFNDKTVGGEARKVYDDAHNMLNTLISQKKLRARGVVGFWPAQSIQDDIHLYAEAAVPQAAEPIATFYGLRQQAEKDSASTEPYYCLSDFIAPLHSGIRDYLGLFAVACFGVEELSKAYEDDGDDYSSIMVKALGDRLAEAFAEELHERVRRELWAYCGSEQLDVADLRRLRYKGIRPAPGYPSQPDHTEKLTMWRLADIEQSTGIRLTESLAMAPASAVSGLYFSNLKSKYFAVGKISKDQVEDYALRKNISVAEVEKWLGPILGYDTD

For “MDDDDFGGFEAAETFDGGSGETQTTSPAIPWAAFPAVSGVHLSPSSPEIVLDRDHSSSIGCLSSDAIISSPENTHAANSIVSQTIPKAQIQQSTHTHLDISLFPLGLTDEKSNGTIALVDDSEDPGANVSNIQLQQKISSLEIKLKVSEEEKQRIKQDVESLMEKHNVLEKGFLKEKEQEAISFQDRYKELQEKHKQELEDMRKAGHEALSIIVDEYKALLQSSVKQQVEAIEKQYISAIEKQAHKCEELLNAQHQRLLEMLDTEKELLKEKIKEALIQQSQEQKEILEKCLEEERQRNKEALVSAAKLEKEAVKDAVLKVVEEERKNLEKAHAEERELWKTEHAKDQEKVSQEIQKAIQEQRKISQETVKAAIIEEQKRSEKAVEEAVKRTRDELIEYIKEQKRLDQVIRQRSLSSLELFLSCAQKQLSALIATEPVDIE [CCDC91]”, the “solubility change mitosis (log2)” value (HeLa Kyoto [1]) was -0.0653, the “solubility in G1/S (log2)” value (HeLa Kyoto [2]) was 0.348 and the thermal stability score (HeLa Kyoto [3]; [5]) was -0.397. The thermal stability score (HeLa Kyoto [3]; cell cycle stage: mitosis) was -0.35, the melting temperature (HeLa Kyoto [4]; cell cycle stage: G1/S) was 53 °C and the melting temperature (HeLa Kyoto [4]; cell cycle stage: mitosis) was 52.1 °C.

For “MASCAEPSEPSAPLPAGVPPLEDFEVLDGVEDAEGEEEEEEEEEEEDDLSELPPLEDMGQPPAEEAEQPGALAREFLAAMEPEPAPAPAPEEWLDILGNGLLRKKTLVPGPPGSSRPVKGQVVTVHLQTSLENGTRVQEEPELVFTLGDCDVIQALDLSVPLMDVGETAMVTADSKYCYGPQGRSPYIPPHAALCLEVTLKTAVDGPDLEMLTGQERVALANRKRECGNAHYQRADFVLAANSYDLAIKAITSSAKVDMTFEEEAQLLQLKVKCLNNLAASQLKLDHYRAALRSCSLVLEHQPDNIKALFRKGKVLAQQGEYSEAIPILRAALKLEPSNKTIHAELSKLVKKHAAQRSTETALYRKMLGNPSRLPAKCPGKGAWSIPWKWLFGATAVALGGVALSVVIAARN [FKBP8]”, the “solubility change mitosis (log2)” value (HeLa Kyoto [1]) was -0.0477, the “solubility in G1/S (log2)” value (HeLa Kyoto [2]) was 0.229 and the thermal stability score (HeLa Kyoto [3]; [5]) was 1.22. For the same substance, the thermal stability score (HeLa Kyoto [3]; cell cycle stage: mitosis) was 3, the melting temperature (HeLa Kyoto [4]; cell cycle stage: G1/S) was 48.7 °C and the melting temperature (HeLa Kyoto [4]; cell cycle stage: mitosis) was 49.5 °C.

With “MVVLSVPAEVTVILLDIEGTTTPIAFVKDILFPYIEENVKEYLQTHWEEEECQQDVSLLRKQAEEDAHLDGAVPIPAASGNGVDDLQQMIQAVVDNVCWQMSLDRKTTALKQLQGHMWRAAFTAGRMKAEFFADVVPAVRKWREAGMKVYIYSSGSVEAQKLLFGHSTEGDILELVDGHFDTKIGHKVESESYRKIADSIGCSTNNILFLTDVTREASAAEEADVHVAVVVRPGNAGLTDDEKTYYSLITSFSELYLPSST [ENOPH1]” the “solubility change mitosis (log2)” value (HeLa Kyoto [1]) was -0.175, the “solubility in G1/S (log2)” value (HeLa Kyoto [2]) was 0.267 and the thermal stability score (HeLa Kyoto [3]; [5]) was 2.1. The thermal stability score (HeLa Kyoto [3]; cell cycle stage: mitosis) was 3.35, the melting temperature (HeLa Kyoto [4]; cell cycle stage: G1/S) was 50.6 °C and the melting temperature (HeLa Kyoto [4]; cell cycle stage: mitosis) was 50.7 °C.

With “MEDDAPVIYGLEFQARALTPQTAETDAIRFLVGTQSLKYDNQIHIIDFDDENNIINKNVLLHQAGEIWHISASPADRGVLTTCYNRTSDSKVLTCAAVWRMPKELESGSHESPDDSSSTAQTLELLCHLDNTAHGNMACVVWEPMGDGKKIISLADNHILLWDLQESSSQAVLASSASLEGKGQLKFTSGRWSPHHNCTQVATANDTTLRGWDTRSMSQIYCIENAHGQLVRDLDFNPNKQYYLASCGDDCKVKFWDTRNVTEPVKTLEEHSHWVWNVRYNHSHDQLVLTGSSDSRVILSNMVSISSEPFGHLVDDDDISDQEDHRSEEKSKEPLQDNVIATYEEHEDSVYAVDWSSADPWLFASLSYDGRLVINRVPRALKYHILL [TSSC1]” the “solubility change mitosis (log2)” value (HeLa Kyoto [1]) was -0.21, the “solubility in G1/S (log2)” value (HeLa Kyoto [2]) was 0.0334 and the thermal stability score (HeLa Kyoto [3]; [5]) was -0.291. For the same substance, the thermal stability score (HeLa Kyoto [3]; cell cycle stage: mitosis) was -0.357, the melting temperature (HeLa Kyoto [4]; cell cycle stage: G1/S) was 51.9 °C and the melting temperature (HeLa Kyoto [4]; cell cycle stage: mitosis) was 52.9 °C.

For “MGSRASTLLRDEELEEIKKETGFSHSQITRLYSRFTSLDKGENGTLSREDFQRIPELAINPLGDRIINAFFPEGEDQVNFRGFMRTLAHFRPIEDNEKSKDVNGPEPLNSRSNKLHFAFRLYDLDKDEKISRDELLQVLRMMVGVNISDEQLGSIADRTIQEADQDGDSAISFTEFVKVLEKVDVEQKMSIRFLH [CHP1]”, the “solubility change mitosis (log2)” value (HeLa Kyoto [1]) was -0.016, the “solubility in G1/S (log2)” value (HeLa Kyoto [2]) was 0.256 and the thermal stability score (HeLa Kyoto [3]; [5]) was -0.997. The thermal stability score (HeLa Kyoto [3]; cell cycle stage: mitosis) was 0.839, the melting temperature (HeLa Kyoto [4]; cell cycle stage: G1/S) was 51.8 °C and the melting temperature (HeLa Kyoto [4]; cell cycle stage: mitosis) was 52.6 °C.

For “MSEADGLRQRRPLRPQVVTDDDGQAPEAKDGSSFSGRVFRVTFLMLAVSLTVPLLGAMMLLESPIDPQPLSFKEPPLLLGVLHPNTKLRQAERLFENQLVGPESIAHIGDVMFTGTADGRVVKLENGEIETIARFGSGPCKTRDDEPVCGRPLGIRAGPNGTLFVADAYKGLFEVNPWKREVKLLLSSETPIEGKNMSFVNDLTVTQDGRKIYFTDSSSKWQRRDYLLLVMEGTDDGRLLEYDTVTREVKVLLDQLRFPNGVQLSPAEDFVLVAETTMARIRRVYVSGLMKGGADLFVENMPGFPDNIRPSSSGGYWVGMSTIRPNPGFSMLDFLSERPWIKRMIFKLFSQETVMKFVPRYSLVLELSDSGAFRRSLHDPDGLVATYISEVHEHDGHLYLGSFRSPFLCRLSLQAV [APMAP]”, the “solubility change mitosis (log2)” value (HeLa Kyoto [1]) was -0.116, the “solubility in G1/S (log2)” value (HeLa Kyoto [2]) was 0.164 and the thermal stability score (HeLa Kyoto [3]; [5]) was 0.325. For the same substance, the thermal stability score (HeLa Kyoto [3]; cell cycle stage: mitosis) was 0.806, the melting temperature (HeLa Kyoto [4]; cell cycle stage: G1/S) was 56.2 °C and the melting temperature (HeLa Kyoto [4]; cell cycle stage: mitosis) was 57.2 °C.

In the case of “MAATSLMSALAARLLQPAHSCSLRLRPFHLAAVRNEAVVISGRKLAQQIKQEVRQEVEEWVASGNKRPHLSVILVGENPASHSYVLNKTRAAAVVGINSETIMKPASISEEELLNLINKLNNDDNVDGLLVQLPLPEHIDERRICNAVSPDKDVDGFHVINVGRMCLDQYSMLPATPWGVWEIIKRTGIPTLGKNVVVAGRSKNVGMPIAMLLHTDGAHERPGGDATVTISHRYTPKEQLKKHTILADIVISAAGIPNLITADMIKEGAAVIDVGINRVHDPVTAKPKLVGDVDFEGVRQKAGYITPVPGGVGPMTVAMLMKNTIIAAKKVLRLEEREVLKSKELGVATN [MTHFD2]”, the “solubility change mitosis (log2)” value (HeLa Kyoto [1]) is reported as -0.0584, the “solubility in G1/S (log2)” value (HeLa Kyoto [2]) is reported as 0.505 and the thermal stability score (HeLa Kyoto [3]; [5]) is reported as 0.31. The thermal stability score (HeLa Kyoto [3]; cell cycle stage: mitosis) was -0.889, the melting temperature (HeLa Kyoto [4]; cell cycle stage: G1/S) was 52.5 °C and the melting temperature (HeLa Kyoto [4]; cell cycle stage: mitosis) was 53.3 °C.

For MTR, the “solubility change mitosis (log2)” value (HeLa Kyoto [1]) was -0.144, the “solubility in G1/S (log2)” value (HeLa Kyoto [2]) was 0.00491 and the thermal stability score (HeLa Kyoto [3]; [5]) was -0.177. The thermal stability score (HeLa Kyoto [3]; cell cycle stage: mitosis) was 0.37, the melting temperature (HeLa Kyoto [4]; cell cycle stage: G1/S) was 48.6 °C and the melting temperature (HeLa Kyoto [4]; cell cycle stage: mitosis) was 49.9 °C.
